Among the data in patent US20160022834A1 are Fc recognition (percent activity values, retold here.

The assay has as its target rat anti-DNP (IgG^DNP, clone: LO-DNP-2) photocrosslinked with IBA-biotin. Briefly: ELISA, anti-Fc HRP secondary on UV exposed IBA-biotin photocrosslinked IgG^DNP (antigen-bound or directly adsorbed), relative to no UV. Background: ELISA stands for enzyme-linked immunosorbent assay.

“HRP-conjugated IgG Fcγ specific goat anti-rat (antibody)” came in with a Fc recognition (percent activity at 2.0 J/cm^2 UV) of 75%.
